Data as given in article PMC11116815.

Target: T1, chemokine (C-C motif) receptor (CCR)1 (human (endogenous in THP-1 and human monocytes)) (UniProt P32246)
T1 sequence: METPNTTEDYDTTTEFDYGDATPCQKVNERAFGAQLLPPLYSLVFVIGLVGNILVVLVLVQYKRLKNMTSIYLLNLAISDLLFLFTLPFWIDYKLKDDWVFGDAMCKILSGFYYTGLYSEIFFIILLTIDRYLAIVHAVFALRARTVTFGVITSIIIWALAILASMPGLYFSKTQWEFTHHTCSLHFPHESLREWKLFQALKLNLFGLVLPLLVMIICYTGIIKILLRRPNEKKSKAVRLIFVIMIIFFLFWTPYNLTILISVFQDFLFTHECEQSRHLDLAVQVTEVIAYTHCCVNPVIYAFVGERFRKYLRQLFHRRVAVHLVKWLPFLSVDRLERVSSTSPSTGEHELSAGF

B1: CCL23_(25-99) (ligand)
chain: RFHATSADCCISYTPRSIPCSLLESYFETNSECSKPGVIFLTKKGRRFCANPSDKQVQVCMRMLKLDTRIKTRKN
EC50 of CCL23 for Gαi activation (TRUPATH BRET biosensor: Gαi1-Rluc8, Gβ3, Gγ9-GFP2) in HEK293T cells transfected with untagged CCR1 alone: 0.3 nM
